Usually stoichiometry N stands for the number of molecules, sites or subunits per partner or assembly.

The assay has as its target GS-nsp5 C145A (GS added nsp5 construct with the active site mutation C145A) (SARS-CoV-2). Briefly: NMR, 2D [15N,1H]-BEST-TROSY spectra compared.

In the case of “GS-nsp5 C145A (GS added nsp5 construct with the active site mutation C145A) (enzyme)”, the stoichiometry N is 2.

(Values after paper PMC8141814 (Frontiers in Molecular Biosciences, 2021).)
